Patent publication US20150166656A1
Where no end group is shown, it is not given here. [ ]: non-standard residue; d: D form. pGlu = O=C1CC[C@@H](C(=O)O)N1

Assays:
[1] = biological target: MAb 400-1; assay: MAb inhibition ELISA; free peptide inhibits 400-1 binding to coated hG17(1-9)-“Ala”-BSA
[2] = biological target: MAb 400-2; assay: MAb inhibition ELISA; free peptide inhibits 400-2 binding to coated hG17(1-9)-“Ala”-BSA
[3] = biological target: MAb 400-3; assay: MAb inhibition ELISA; free peptide inhibits 400-3 binding to coated hG17(1-9)-“Ala”-BSA
[4] = biological target: MAb 400-4; assay: MAb inhibition ELISA; free peptide inhibits 400-4 binding to coated hG17(1-9)-“Ala”-BSA
[5] = biological target: MAb 458-1; assay: MAb inhibition ELISA; free peptide inhibits 458-1 binding to the coated target conjugate
[6] = biological target: MAb 458-2; assay: MAb inhibition ELISA; free peptide inhibits 458-2 binding to the coated target conjugate
[7] = biological target: MAb 458-3; assay: MAb inhibition ELISA; free peptide inhibits 458-3 binding to the coated target conjugate
[8] = biological target: MAb 458-4; assay: MAb inhibition ELISA; free peptide inhibits 458-4 binding to the coated target conjugate
[9] = biological target: MAb 458-5; assay: MAb inhibition ELISA; free peptide inhibits 458-5 binding to the coated target conjugate
[10] = biological target: MAb 445-1; assay: MAb inhibition ELISA; free peptide inhibits 445-1 binding to coated hG34(16-34)-Gly 35-BSA
[11] = biological target: MAb 445-2; assay: MAb inhibition ELISA; free peptide inhibits 445-2 binding to coated hG34(16-34)-Gly 35-BSA
[12] = biological target: MAb 458-1; assay: MAb inhibition ELISA; free peptide against 458-1 binding to the coated target conjugate
[13] = biological target: MAb 401-2; assay: MAb inhibition ELISA; free peptide inhibits 401-2 binding to the coated G34 N-terminal peptide-BSA
[14] = biological target: MAb 458-3; assay: MAb inhibition ELISA; free peptide against 458-3 binding to the coated target conjugate

An IC50 [1] of 2030 nM, an IC50 [2] of 85 nM and an IC50 [3] of 1080 nM were found for EGPWLEEEEEAYGWMDF (N-terminal pyroglutamic acid (pE); C-terminal Phe-NH2 (amide)) [human gastrin-17 (G17)] in this work. For the same binder, the IC50 [4] was 620 nM, the Inhibition at 10 nmol/ml (250 pmoles/well) [5] was 94.3% and the Inhibition at 10 nmol/ml (250 pmoles/well) [6] was 86%. It also gave an Inhibition at 10 nmol/ml (250 pmoles/well) [7] of 92.4%, an Inhibition at 10 nmol/ml (250 pmoles/well) [8] of 88.4% and an Inhibition at 10 nmol/ml (250 pmoles/well) [9] of 91.9%.

An IC50 [10] of 4000 nM and an IC50 [11] of 13000 nM were found for CPPPPSSYGWMDFG [hG17(12-17)-Gly18 peptide …] in this work.

An Inhibition at 10 nmol/ml (250 pmoles/well) [5] of 93.8%, an Inhibition at 10 nmol/ml (250 pmoles/well) [6] of 84.8% and an Inhibition at 10 nmol/ml (250 pmoles/well) [7] of 84.8% were found for DYMGWMDF-NH2 [CCK (26-33) unsulfated] in this work. The Inhibition at 10 nmol/ml (250 pmoles/well) [8] was 83.4% and the Inhibition at 10 nmol/ml (250 pmoles/well) [9] was 92%.

An IC50 [1] of 1790 nM, an IC50 [2] of 77 nM and an IC50 [3] of 1390 nM were found for [pGlu]GPWLEEEEEAYGWMDFG (ends and bridges not checked) [glycine-extended gastrin-17 (G17-Gly)] in this work. For the same binder, the IC50 [4] was 699 nM, the Inhibition at 10 nmol/ml (250 pmoles/well) [12] was 2.1% and the IC50 [10] was 700 nM. The IC50 [11] was 5000 nM.

An Inhibition at 10 nmol/ml (250 pmoles/well) [5] of 93.5%, an Inhibition at 10 nmol/ml (250 pmoles/well) [6] of 84.5% and an Inhibition at 10 nmol/ml (250 pmoles/well) [7] of 90.7% were found for [pGlu]LGPQGPPHLVADPSKKEGPWLEEEEEAYGWMDF-NH2 (ends and bridges not checked) [human gastrin-34 (G34)] in this work. It also gave an Inhibition at 10 nmol/ml (250 pmoles/well) [8] of 86.7%, an Inhibition at 10 nmol/ml (250 pmoles/well) [9] of 91.5% and an IC50 [13] of 700 nM.

An Inhibition at 10 nmol/ml (250 pmoles/well) [14] of 1.2% was found for EGPWLEEEE [hG17(9)] in this work.
